Assay results from US20050222029A1 (MYRIAD GENETICS, published 2005).

T1: Tumor Suppressor (TSG101) 240-391 (human, UniProt Q99816 240-390)
T1 construct: range 240-391; bait (Gal4 DBD fusion); also called TSG101 240-390
T1 sequence (looked up): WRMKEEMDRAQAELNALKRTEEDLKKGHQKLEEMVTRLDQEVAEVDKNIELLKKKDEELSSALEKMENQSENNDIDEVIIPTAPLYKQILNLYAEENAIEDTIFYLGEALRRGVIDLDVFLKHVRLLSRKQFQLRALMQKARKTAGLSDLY

B1: Intersection 1 436-547 (other, human, UniProt Q15811 436-547, looked up)
chain: AAKRELERQRQLEWERNRRQELLNQRNKEQEDIVVLKAKKKTLEFELEALNDKKHQLEGKLQDIRCRLTTQRQEIESTNKSRELRIAEITHLQQQLQESQQMLGRLIPEKQI
notes: prey (Gal4 AD-HA fusion); also called Intersectin 1; ITSN1
B2: Intersection 1 437-584 (other, human, UniProt Q15811 437-584, looked up)
chain: AKRELERQRQLEWERNRRQELLNQRNKEQEDIVVLKAKKKTLEFELEALNDKKHQLEGKLQDIRCRLTTQRQEIESTNKSRELRIAEITHLQQQLQESQQMLGRLIPEKQILNDQLKQVQQNSLHRDSLVTLKRALEAKELARQHLRD
notes: as for B1
B3: Keratin 5 325-446 (other, human, UniProt P13647 325-446, looked up)
chain: LSMDNNRNLDLDSIIAEVKAQYEEIANRSRTEAESWYQTKYEELQQTAGRHGDDLRNTKHEISEMNRMIQRLRAEIDNVKKQCANLQNAIADAEQRGELALKDARNKLAELEEALQKAKQDM
notes: prey (Gal4 AD-HA fusion)
B4: Keratin 5 379-452 (other, human, UniProt P13647 379-452, looked up)
chain: LRNTKHEISEMNRMIQRLRAEIDNVKKQCANLQNAIADAEQRGELALKDARNKLAELEEALQKAKQDMARLLRE
notes: prey (Gal4 AD-HA fusion)
B5: Keratin 5 335-473 (other, human, UniProt P13647 335-473, looked up)
chain: LDSIIAEVKAQYEEIANRSRTEAESWYQTKYEELQQTAGRHGDDLRNTKHEISEMNRMIQRLRAEIDNVKKQCANLQNAIADAEQRGELALKDARNKLAELEEALQKAKQDMARLLREYQELMNTKLALDVEIATYRKL
notes: prey (Gal4 AD-HA fusion)
B6: Keratin 5 349-475 (other, human, UniProt P13647 349-475, looked up)
chain: IANRSRTEAESWYQTKYEELQQTAGRHGDDLRNTKHEISEMNRMIQRLRAEIDNVKKQCANLQNAIADAEQRGELALKDARNKLAELEEALQKAKQDMARLLREYQELMNTKLALDVEIATYRKLLE
notes: prey (Gal4 AD-HA fusion)
B7: Keratin 5 384-475 (other, human, UniProt P13647 384-475, looked up)
chain: HEISEMNRMIQRLRAEIDNVKKQCANLQNAIADAEQRGELALKDARNKLAELEEALQKAKQDMARLLREYQELMNTKLALDVEIATYRKLLE
notes: prey (Gal4 AD-HA fusion)
B8: Keratin 5 347-485 (other, human, UniProt P13647 347-485, looked up)
chain: EEIANRSRTEAESWYQTKYEELQQTAGRHGDDLRNTKHEISEMNRMIQRLRAEIDNVKKQCANLQNAIADAEQRGELALKDARNKLAELEEALQKAKQDMARLLREYQELMNTKLALDVEIATYRKLLEGEECRLSGEG
notes: prey (Gal4 AD-HA fusion)
B9: Keratin 8 293-394 (other, human, UniProt P05787 293-394, looked up)
chain: AGKHGDDLRRTKTEISEMNRNISRLQAEIEGLKGQRASLEAAIADAEQRGELAIKDANAKLSELEAALQRAKQDMARQLREYQELMNVKLALDIEIATYRKL
notes: prey (Gal4 AD-HA fusion)
B10: GTPase-activiating protein 1 1406-1547 (other, human, UniProt P46940 1406-1547, looked up)
chain: EILETPATSEQEAEHQRAMQRRAIRDAKTPDKMKKSKSVKEDSNLTLQEKKEKIQTGLKKLTELGTVDPKNKYQELINDIARDIRNQRRYRQRRKAELVKLQQTYAALNSKATFYGEQVDYYKSYIKTCLDNLASKGKVSKK
notes: prey (Gal4 AD-HA fusion); also called IQGAP1; IQGAP
B11: GTPase-activiating protein 1 1404-1553 (other, human, UniProt P46940 1404-1553, looked up)
chain: LTEILETPATSEQEAEHQRAMQRRAIRDAKTPDKMKKSKSVKEDSNLTLQEKKEKIQTGLKKLTELGTVDPKNKYQELINDIARDIRNQRRYRQRRKAELVKLQQTYAALNSKATFYGEQVDYYKSYIKTCLDNLASKGKVSKKPREMKG
notes: as for B10
B12: GTPase-activiating protein 1 1439-1565 (other, human, UniProt P46940 1439-1565, looked up)
chain: KKSKSVKEDSNLTLQEKKEKIQTGLKKLTELGTVDPKNKYQELINDIARDIRNQRRYRQRRKAELVKLQQTYAALNSKATFYGEQVDYYKSYIKTCLDNLASKGKVSKKPREMKGKKSKKISLKYTA
notes: as for B10
B13: GTPase-activiating protein 1 1439-1567 (other, human, UniProt P46940 1439-1567, looked up)
chain: KKSKSVKEDSNLTLQEKKEKIQTGLKKLTELGTVDPKNKYQELINDIARDIRNQRRYRQRRKAELVKLQQTYAALNSKATFYGEQVDYYKSYIKTCLDNLASKGKVSKKPREMKGKKSKKISLKYTAAR
notes: as for B10

Biological target: T1, Tumor Suppressor (TSG101) 240-391
Assay: yeast two-hybrid

Binder | binding result
B1 | binds
B2 | binds
B3 | binds
B4 | binds
B5 | binds
B6 | binds
B7 | binds
B8 | binds
B9 | binds
B10 | binds
B11 | binds
B12 | binds
B13 | binds
